pKd: −log10 of the molar value.
Legend:
[1] = target: human TIGIT expressed on cells (human) (UniProt Q495A1); assay: cell-based or functional assay
[2] = target: Human TIGIT-His (extracellular domain of hTIGIT with a histidine tag) (human) (UniProt Q495A1); assay: SPR, Biacore T200, antibody captured on anti-mouse IgG, TIGIT-His in solution, 1:1 Langmuir fit
[3] = target: human TIGIT-Fc protein (human) (UniProt Q495A1); assay: SPR, Biacore T200, antibody captured on anti-mouse IgG, TIGIT-Fc in solution, 1:1 Langmuir fit
human TIGIT-Fc protein (human), sequence (Q495A1 25-141): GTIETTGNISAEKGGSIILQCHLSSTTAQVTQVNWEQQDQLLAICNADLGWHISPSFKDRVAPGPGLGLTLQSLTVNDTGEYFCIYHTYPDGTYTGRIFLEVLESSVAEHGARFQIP

Human TIGIT-His (extracellular domain of hTIGIT with a histidine tag) (human), sequence (Q495A1 25-141 limits assumed): as the sequence (Q495A1 25-141) above
human TIGIT expressed on cells (human), sequence (Q495A1 25-244): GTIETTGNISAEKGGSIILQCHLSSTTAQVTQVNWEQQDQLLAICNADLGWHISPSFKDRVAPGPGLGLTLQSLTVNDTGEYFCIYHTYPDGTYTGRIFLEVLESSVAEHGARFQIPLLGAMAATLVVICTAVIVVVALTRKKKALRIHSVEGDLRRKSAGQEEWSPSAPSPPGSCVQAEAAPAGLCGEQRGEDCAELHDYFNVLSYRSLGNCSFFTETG

EC50 of IL-2 rescue in hTIGIT-Jurkat / THP-1 co-culture [1]: 0.24 µg/mL | pKd [2]: 10.44 | pKd [3]: 10.78
Substance: MBSA43 (commercial mouse anti-human TIGIT antibody, eBioscience Cat #12-9500-42)

Reference: patent US20200270346A1
